Laboratory results published in US20110091994A1, “Methods for Screening Compounds for Treating and/or Preventing an Hepatitis C Virus Infection” (priority 2008, published 2011).
Read-outs that look alike come from different tables or passages of the source.

Key:
[1] = target: T1, HCV ORFs (Gal4-DB fusions) (Hepatitis C virus genotype 1b, UniProt Q9WMX2); assay type: binding, HCV genotype 1b, isolate con1; settings: human protein as prey
T1 construct: expressed in transfected cells; host or cells: Saccharomyces cerevisiae MAV203 (IMAP1) / AH109 (IMAP2)

[2] = target: T2, GST-tagged viral proteins (Hepatitis C virus genotype 1b, UniProt Q9WMX2); assay: Validation by co-affinity purification (CoAP); assay type: binding, HCV genotype 1b, isolate con1; parameters: key: +: IMAP validation; −: not validated; NA: non assayable due to default of protein expression or to cellular protein directly interacting with GST
T2 construct: expressed in transfected cells; host or cells: HEK-293T
From the text: C. Validation of Y2H interactions by co-affinity purification assay. Nine co-AP positive assays are shown, representing: NS5A-SORBS2 (1), NS3-CALCOCO2 (2), NS5A-BIN1 (3), NS5A-MOBK1B (4), NS5A-EFEMP1 (5), NS3-PSMB9 and NS5A-PSMB9 (6), NS5A-PPPIRI3L (7), NS3-RASAL2 (8). After pull-down with GST tagged viral baits (+) or with negative control GST alone (−), cellular preys are identified with anti-Flag antibody. Anti-GST antibody identifies either GST alone or GST-tagged viral baits. Expression of cellular preys in cell lysate is controlled by anti-Flag (bottom panel). […]
A random pool of 59 IMAP Y2H interactions was chosen for CoAP assays. Cellular ORFs (interacting domains found in Y2H screens) were cloned by recombinational cloning from a pool of human cDNA library or the MGC cDNA plasmids using KOD polymerase (Toyobo) into pDONR207 (Invitrogen). After validation by sequencing, these ORFs were transferred to pCi-neo-3xFLAG gateway-converted, and HCV ORFs were transferred into pDEST27 (GST fusion in N-term). HEK-293T cells were then co-transfected (JetPei, Polyplus) by each pair of plasmid encoding interacting proteins. Controls are GST alone against 3xFLAG-tagged preys. Two days after transfection, cells were harvested and lysed (0.5% NP-40, 20 mM Tris-HCl (pH 8.0), 180 mM NaCl, 1 mM EDTA, and complete protease inhibitor cocktail). Cell lysates were cleared by centrifugation for 20 min at 13,000 rpm at 4° C. and soluble protein complexes were purified using Glutathione Sepharose 4B beads (GE Healthcare). Beads were then washed extensively four times with lysis buffer and proteins were separated on SDS-PAGE and transferred to nitrocellulose membrane. GST-tagged viral proteins and 3xFLAG-tagged cellular proteins were detected using standard immunoblotting techniques using anti-GST (Covance) and anti-FLAG M2 (Sigma) monoclonal antibodies (21).

[3] = system: HCV ORFs (Gal4-DB fusions); assay type: binding, HCV genotype 1b, isolate con1; settings: human protein listed by gene symbol; the value names the HCV protein it interacts with
HCV proteins = target: T3, HCV proteins (Hepatitis C virus genotype 1b, UniProt Q9WMX2); assay: Validation by Y2H pairwise matrices; assay type: binding; settings: validation of interaction with HCV protein NS3;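 also: yeast two-hybrid pairwise tests of interactions first found in Y2H screens of HCV bait proteins against human cDNA libraries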
T3 construct: expressed in transfected cells

[4] = interaction with HCV protein NS5A
[5] = validation of interaction with HCV protein NS3
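For IMAP Y2H IMAP1 (number of IST) in this document: yeast two-hybrid screens using HCV genotype 1b proteins fused to Gal4-DB as baits against prey cDNA libraries from human spleen and foetal brain, IMAP1 via transformation and IMAP2 via mating.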
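For IMAP Y2H IMAP2 (number of IST) in this document: yeast two-hybrid screens using HCV genotype 1b proteins fused to Gal4-DB as baits against prey cDNA libraries from human spleen and foetal brain, IMAP1 via transformation and IMAP2 via mating.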
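For Interaction with viral protein in this document: yeast two-hybrid screens using HCV genotype 1b proteins fused to Gal4-DB as baits against prey cDNA libraries from human spleen and foetal brain, IMAP1 via transformation and IMAP2 via mating.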

T3 sequence (Q9WMX2 1027-1657): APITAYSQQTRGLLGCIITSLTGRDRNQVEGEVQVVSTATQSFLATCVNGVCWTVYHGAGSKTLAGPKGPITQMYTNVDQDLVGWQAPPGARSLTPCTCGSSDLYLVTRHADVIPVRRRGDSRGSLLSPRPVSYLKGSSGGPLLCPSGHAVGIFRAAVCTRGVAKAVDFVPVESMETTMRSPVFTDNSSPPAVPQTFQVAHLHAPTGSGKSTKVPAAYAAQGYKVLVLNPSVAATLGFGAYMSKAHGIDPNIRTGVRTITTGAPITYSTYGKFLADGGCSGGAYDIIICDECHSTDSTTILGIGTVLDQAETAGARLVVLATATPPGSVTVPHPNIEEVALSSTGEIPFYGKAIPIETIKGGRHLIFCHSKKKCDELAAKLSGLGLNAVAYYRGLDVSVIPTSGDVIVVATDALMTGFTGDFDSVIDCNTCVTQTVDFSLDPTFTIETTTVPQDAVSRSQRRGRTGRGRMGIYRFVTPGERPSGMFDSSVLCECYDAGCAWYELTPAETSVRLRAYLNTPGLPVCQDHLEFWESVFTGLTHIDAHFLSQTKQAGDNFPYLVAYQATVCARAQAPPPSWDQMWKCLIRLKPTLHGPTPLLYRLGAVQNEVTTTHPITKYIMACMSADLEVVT

Molecule	IMAP Y2H IMAP2 (number of IST) ([1]; HCV protein NS5A as bait)	CoAP [2, 4]	Interaction with viral protein [3]	IMAP Y2H IMAP1 (number of IST) ([1]; HCV protein NS3 as bait)	Y2H matrices (HCV proteins)	IMAP Y2H IMAP2 (number of IST) ([1]; HCV protein NS3 as bait)	IMAP Y2H IMAP2 (number of IST) ([1]; HCV protein NS5B as bait)	CoAP [2, 5]
NAP1L2 (protein, UniProt Q9ULW6 1-460, looked up) Nucleosome assembly protein …: MAESENRKELSESSQEEAGNQIMVEGLGEHLERGEDAAAGLGDDGKCGEEAAAGLGEEGENGEDTAAGSGEDGKKGGDTDEDSEADRPKGLIGYVLDTDFVESLPVKVKYRVLALKKLQTRAANLESKFLREFHDIERKFAEMYQPLLEKRRQIINAIYEPTEEECEYKSDSEDCDDEEMCHEEMYGNEEGMVHEYVDEDDGYEDYYYDYAVEEEEEEEEEDDIEATGEENKEEEDPKGIPDFWLTVLKNVDTLTPLIKKYDEPILKLLTDIKVKLSDPGEPLSFTLEFHFKPNEYFKNELLTKTYVLKSKLAYYDPHPYRGTAIEYSTGCEIDWNEGKNVTLKTIKKKQKHRIWGTIRTVTEDFPKDSFFNFFSPHGITSNGRDGNDDFLLGHNLRTYIIPRSVLFFSGDALESQQEGVVREVNDAIYDKIIYDNWMAAIEEVKACCKNLEALVEDIDR	4	+	–	–	–	–	–	–
C1orf94 (protein, UniProt Q6P1W5 1-598, looked up) Uncharacterized protein …: MRGGGGCVLALGGQRGFQKERRRMASGNGLPSSSALVAKGPCALGPFPRYIWIHQDTPQDSLDKTCHEIWKRVQGLPEASQPWTSMEQLSVPVVGTLRGNELSFQEEALELSSGKDEISLLVEQEFLSLTKEHSILVEESSGELEVPGSSPEGTRELAPCILAPPLVAGSNERPRASIIVGDKLLKQKVAMPVISSRQDCDSATSTVTDILCAAEVKSSKGTEDRGRILGDSNLQVSKLLSQFPLKSTETSKVPDNKNVLDKTRVTKDFLQDNLFSGPGPKEPTGLSPFLLLPPRPPPARPDKLPELPAQKRQLPVFAKICSKPKADPAVERHHLMEWSPGTKEPKKGQGSLFLSQWPQSQKDACGEEGCCDAVGTASLTLPPKKPTCPAEKNLLYEFLGATKNPSGQPRLRNKVEVDGPELKFNAPVTVADKNNPKYTGNVFTPHFPTAMTSATLNQPLWLNLNYPPPPVFTNHSTFLQYQGLYPQQAARMPYQQALHPQLGCYSQQVMPYNPQQMGQQIFRSSYTPLLSYIPFVQPNYPYPQRTPPKMSANPRDPPLMAGDGPQYLFPQGYGFGSTSGGPLMHSPYFSSSGNGINF	–	–	NS3	1	+	–	–	–
PSMB9 (protein, UniProt P28065 21-219, looked up) Proteasome subunit beta type-9: TTIMAVEFDGGVVMGSDSRVSAGEAVVNRVFDKLSPLHERIYCALSGSAADAQAVADMAAYQLELHGIELEEPPLVLAAANVVRNISYKYREDLSAHLMVAGWDQREGGQVYGTLGGMLTRQPFAIGGSGSTFIYGYVDAAYKPGMSPEECRRFTTDAIALAMSRDGSSGGVIYLVTITAAGVDHRVILGNELPKFYDE	38	+	NS3 and NS5A	–	–	1	14	+
C12orf41 (protein, UniProt Q9H9L4 1-492, looked up) KAT8 regulatory NSL complex …: MNRIRIHVLPTNRGRITPVPRSQEPLSCAFTHRPCSHPRLEGQEFCIKHILEDKNAPFKQCSYISTKNGKRCPNAAPKPEKKDGVSFCAEHVRRNALALHAQMKKTNPGPVGETLLCQLSSYAKTELGSQTPESSRSEASRILDEDSWSDGEQEPITVDQTWRGDPDSEADSIDSDQEDPLKHAGVYTAEEVALIMREKLIRLQSLYIDQFKRLQHLLKEKKRRYLHNRKVEHEALGSSLLTGPEGLLAKERENLKRLKCLRRYRQRYGVEALLHRQLKERRMLATDGAAQQAHTTRSSQRCLAFVDDVRCSNQSLPMTRHCLTHICQDTNQVLFKCCQGSEEVPCNKPVPVSLSEDPCCPLHFQLPPQMYKPEQVLSVPDDLEAGPMDLYLSAAELQPTESLPLEFSDDLDVVGDGMQCPPSPLLFDPSLTLEDHLVKEIAEDPVDILGQMQMAGDGCRSQGSRNSEKASAPLSQSGLATANGKPEPTSIS	–	–	NS3	1	+	–	–	–
GBP2 (protein, UniProt P32456 1-588, looked up) Guanylate-binding protein 2: MAPEINLPGPMSLIDNTKGQLVVNPEALKILSAITQPVVVVAIVGLYRTGKSYLMNKLAGKKNGFSLGSTVKSHTKGIWMWCVPHPKKPEHTLVLLDTEGLGDIEKGDNENDSWIFALAILLSSTFVYNSMGTINQQAMDQLHYVTELTDRIKANSSPGNNSVDDSADFVSFFPAFVWTLRDFTLELEVDGEPITADDYLELSLKLRKGTDKKSKSFNDPRLCIRKFFPKRKCFVFDWPAPKKYLAHLEQLKEEELNPDFIEQVAEFCSYILSHSNVKTLSGGIPVNGPRLESLVLTYVNAISSGDLPCMENAVLALAQIENSAAVEKAIAHYEQQMGQKVQLPTETLQELLDLHRDSEREAIEVFMKNSFKDVDQMFQRKLGAQLEARRDDFCKQNSKASSDCCMALLQDIFGPLEEDVKQGTFSKPGGYRLFTQKLQELKNKYYQVPRKGIQAKEVLKKYLESKEDVADALLQTDQSLSEKEKAIEVERIKAESAEAAKKMLEEIQKKNEEMMEQKEKSYQEHVKQLTEKMERDRAQLMAEQEKTLALKLQEQERLLKEGFENESKRLQKDIWDIQMRSKSLEPIC	–	–	NS3	–	–	26	–	+
CCDC21 (protein, UniProt Q6P2H3 1-762, looked up) Centrosomal protein of 85 kDa: MAMQEKYPTEGISHVTSPSSDVIQKGSSLGTEWQTPVISEPFRSRFSRCSSVADSGDTAIGTSCSDIAEDFCSSSGSPPFQPIKSHVTIPTAHVMPSTLGTSPAKPNSTPVGPSSSKLPLSGLAESVGMTRNGDLGAMKHSPGLSRDLMYFSGATGENGIEQSWFPAVGHERQEEARKFDIPSMESTLNQSAMMETLYSDPHHRVRFHNPRTSTSKELYRVLPEAKKAPGSGAVFERNGPHSNSSGVLPLGLQPAPGLSKPLPSQVWQPSPDTWHPREQSCELSTCRQQLELIRLQMEQMQLQNGAICHHPAAFGPSLPILEPAQWISILNSNEHLLKEKELLIDKQRKHISQLEQKVRESELQVHSALLGRPAPFGDVCLLRLQELQRENTFLRAQFAQKTEALSREKIDLEKKLSASEVEVQLIRESLKVALQKHSEEVKKQEERVKGRDKHINNLKKKCQKESEQNREKQQRIETLERYLADLPTLEDHQKQSQQLKDSELKSTELQEKVTELESLLEETQAICREKEIQLESLRQREAEFSSAGHSLQDKQSVEETSGEGPEVEMESWQKRYDSLQKIVEKQQQKMDQLRSQVQSLEQEVAQEEGTSQALREEAQRRDSALQQLRTAVKELSVQNQDLIEKNLTLQEHLRQAQPGSPPSPDTAQLALELHQELASCLQDLQAVCSIVTQRAQGHDPNLSLLLGIHSAQHPETQLDLQKPDVIKRKLEEVQQLRRDIEDLRTTMSDRYAQDMGENCVTQ	–	–	NS3	–	–	2	–	+
VPS52 (protein, UniProt Q8N1B4 2-723, looked up) Vacuolar protein …: AAAATMAAAARELVLRAGTSDMEEEEGPLAGGPGLQEPLQLGELDITSDEFILDEVDVHIQANLEDELVKEALKTGVDLRHYSKQVELELQQIEQKSIRDYIQESENIASLHNQITACDAVLERMEQMLGAFQSDLSSISSEIRTLQEQSGAMNIRLRNRQAVRGKLGELVDGLVVPSALVTAILEAPVTEPRFLEQLQELDAKAAAVREQEARGTAACADVRGVLDRLRVKAVTKIREFILQKIYSFRKPMTNYQIPQTALLKYRFFYQFLLGNERATAKEIRDEYVETLSKIYLSYYRSYLGRLMKVQYEEVAEKDDLMGVEDTAKKGFFSKPSLRSRNTIFTLGTRGSVISPTELEAPILVPHTAQRGEQRYPFEALFRSQHYALLDNSCREYLFICEFFVVSGPAAHDLFHAVMGRTLSMTLKHLDSYLADCYDAIAVFLCIHIVLRFRNIAAKRDVPALDRYWEQVLALLWPRFELILEMNVQSVRSTDPQRLGGLDTRPHYITRRYAEFSSALVSINQTIPNERTMQLLGQLQVEVENFVLRVAAEFSSRKEQLVFLINNYDMMLGVLMERAADDSKEVESFQQLLNARTQEFIEELLSPPFGGLVAFVKEAEALIERGQAERLRGEEARVTQLIRGFGSSWKSSVESLSQDVMRSFTNFRNGTSIIQGALTQLIQLYHRFHRVLSQPQLRALPARAELINIHHLMVELKKHKPNF	2	+	–	–	–	–	–	–
